From patent publication US8173598B2, “Myeloid protein activation of anti-inflammatory and anti-hypoxic pathway” (The Board of Trustees of the University of Illinois, priority 2008, dated 2012)
No end group written: not given here. *: point of attachment. Palmitoyl = CCCCCCCCCCCCCCCC(=O)*

Experiments:
[1] = system: Human peripheral neutrophils; experiment: Spontaneous oxidative activation of neutrophils (DCFH-DA oxidation); format: cell-based
From the text: (§1) Human peripheral neutrophils were isolated from heparinized blood donated by healthy volunteers according to a protocol approved by the University of Illinois Institutional Review Board. The cells were isolated using a Histopaque™ gradient (Sigma) according to the manufacturer's instructions. Cell viability and identity was confirmed by trypan blue staining. Live cells and neutrophils represented at least 95% of isolated leukocytes.
(§2) The method for the measurement of oxidative activation of neutrophils was based on the ROS-dependent oxidation of DCFH-DA to DCF and was adapted from Ciapetti et al. DCFH-DA crosses the cell membrane and is hydrolyzed by nonspecific esterases to nonfluorescent DCFH. Its oxidation by ROS results in the generation of highly fluorescent DCF [30]. DCFH-DA is therefore a widely accepted probe for the measurement of an overall index of oxidative activity. DCFH-DA was purchased from Calbiochem (Madison, Wis.). The assays were run in clear bottom black 96-well plate. “Edge effects” (a higher fluorescence in edge wells) were avoided by using only center wells. Briefly, 50 μl of Dulbecco's Phosphate Buffered Saline (DPBS) containing DCFH-DA was added to each well with the final concentration of […]. S100 proteins or PKC inhibitors were diluted in the wells. Just before a baseline reading 100,000 neutrophils in 50 μl PBS were placed in each well. 96-well plates were incubated at 37° C. and 5% CO2 and were read at baseline (immediately after cell addition to the plates) and at indicated time points in a Spectra Max Gemini XS fluorescent plate reader. The excitation wavelength was 485 and the reading was done at 530 nm. Wells with no DCFH-DA were used to measure background fluorescence which was subtracted from each reading. Controls with no cells were also analyzed and display no increased fluorescence over time. All assays were conducted in triplicate or quadruplicate wells.
In order to avoid differences between donors, experimental procedures and plate to plate variation, all experimental conditions and statistical analysis were run within one plate inclusive of all positive and negative controls. Single sample t-tests were calculated to test the S100A8, S100A9 and combined proteins in comparison to the control wells with alpha set to ≦0.05 to determine statistical significance. Comparisons between the S100A8, S100A9 and combined proteins were calculated with two sample t-tests using SPSS (SPSS Inc., Chicago, Ill.) with alpha set to ≦0.05 to determine statistical relevance.

[2] = system: Human peripheral neutrophils; experiment: PAR-4 activating peptide enhanced neutrophil oxidative metabolism (DCFH-DA oxidation); format: cell-based; conditions: P4pal-i1 with PAR-4 activating peptide (FIG. 6A)
From the text: as §1
The method for the measurement of oxidative activation of neutrophils was based on the ROS-dependent oxidation of DCFH-DA to DCF and was adapted from Ciapetti et al. DCFH-DA crosses the cell membrane and is hydrolyzed by nonspecific esterases to nonfluorescent DCFH. […] “Edge effects” (a higher fluorescence in edge wells) were avoided by using only center wells. […] Just before a baseline reading 100,000 neutrophils in 50 μl PBS were placed in each well. 96-well plates were incubated at 37° C. and 5% CO2 and were read at baseline (immediately after cell addition to the plates) and at indicated time points in a Spectra Max Gemini XS fluorescent plate reader. The excitation wavelength was 485 and the reading was done at 530 nm. Wells with no DCFH-DA were used to measure background fluorescence which was subtracted from each reading. Controls with no cells were also analyzed and display no increased fluorescence over time. […]

[3] = system: Human peripheral neutrophils; experiment: PMA induced activation of neutrophil oxidative metabolism (DCFH-DA oxidation); format: cell-based; conditions: dose dependent
From the text: as §1, §2

[4] = system: Human peripheral neutrophils; experiment: LPS stimulated neutrophil oxidative metabolism (DCFH-DA oxidation); format: cell-based; conditions: 2.5 to 10 μg/ml of protein; LPS 10 μg/ml
From the text: as §1, §2

thrombin receptors = experiment: Calcium flux and thrombin-S100A8/A9 cross-desensitization in Chem-3 cells; format: cell-based; conditions: each alone
Experimental: (§3) Screening for S100A8 and S100A9 activity on thrombin receptors including thrombin receptor desensitization were conducted with calcium flux assays in Chem 3 and PAR-4 expressing Chem.-1 cells by Millipore's GPCRProfiler(R) Service (Millipore, St. Charles, Mo.; see website Millipore website on the internet).

PAR-4 = molecular target: T1, PAR-4 (Homo sapiens, UniProt Q96RI0); experiment: Calcium flux and desensitization to thrombin in PAR-4 expressing Chem.-1 cells; format: cell-based
T1 construct: host or cells: Chem-1 cells
T1 sequence (Q96RI0 18-385): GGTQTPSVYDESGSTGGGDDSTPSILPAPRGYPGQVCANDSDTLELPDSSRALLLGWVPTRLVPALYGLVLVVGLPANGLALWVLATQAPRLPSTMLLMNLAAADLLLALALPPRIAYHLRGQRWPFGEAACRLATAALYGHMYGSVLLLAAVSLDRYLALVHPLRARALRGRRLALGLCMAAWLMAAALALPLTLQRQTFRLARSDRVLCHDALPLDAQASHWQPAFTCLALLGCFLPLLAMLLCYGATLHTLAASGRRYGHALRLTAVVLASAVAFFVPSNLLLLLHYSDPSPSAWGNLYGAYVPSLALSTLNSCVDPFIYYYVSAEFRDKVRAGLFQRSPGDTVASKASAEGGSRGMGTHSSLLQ
Experimental: as §3

[5] = system: excisional cutaneous wounds; experiment: Wound closure in the SKH-1 restraint stress model; format: in vivo, SKH-1 mice
From the text: This protocol was approved by the Committee on Animal Research at the University of Illinois at Chicago. Virus antibody-free, female SKH-1 mice, 5-6 weeks of age, were purchased from Charles River, Inc (Wilmington, Mass.). The animals were allowed to acclimate to the animal facility for at least one week prior to experimental procedures.
(§4) The restraint stress protocol is based on established procedures (Gajendrareddy et al., 2005; Mercado et al., 2002; Padgett et al., 1998). Restraint was initiated 3 days before wounding. Restraint stress (RST) in this model consists of confinement of mice within loosely fitting, well-ventilated 50 ml conical tubes for a period of 12-14 hours during their active nocturnal cycle. Animals were subjected to restraint for an additional five cycles on the day of wounding and for four days thereafter, then stress was discontinued.
For excisional wounds, mice were anesthetized with a single 0.25 ml intraperitoneal injection of Ketaset solution (Aveco, Fort Dodge, Iowa) at a concentration of 7.8 mg/ml, plus Rompum (Haver-Lockhart, Shawnee, Kans.) at 0.44 mg/ml. Each animal received two standardized circular cutaneous wounds with 3.5 mm punch (Miltex Instrument Company), placed just behind the shoulder blades with a biopsy punch.
(§5) For treatment of wounds, S100A8 and mutant ala^42S100A8 were produced, cleaved and purified from a GST fusion construct as previously described (Tugizov et al., 2005) (Sroussi et al., 2006). The endotoxin levels in the recombinant protein preparations were below 1 ng/μg of proteins as measured by the Limulus amoebocyte lysate assay (LAL) (Associates of Cape Cod, Falmouth, Mass.). Solutions of S100 proteins at a concentration of 1 μg/ml were used for those experiments. Introduction of S100A8 protein or control saline vehicle were conducted through local injection intradermally of 25 μl solution in the tissue surrounding the wounds with the help of Micro-Fine IV syringes 28G1/2 (Becton Dickinson, Franklin Lakes, N.J.). Careful wound manipulation ensured no direct disruption of the wound site. An additional 10 μl solution was applied directly to the wounds.
Measurement of Wound Sizes was done as follows. Beginning on the day of wounding (day 0), each animal's wounds were photographed daily until day 5 post-wounding. Photographs of the wound were obtained with a standard-sized dot placed next to the site. Digitized photographs were analyzed using photoplanimetry (Marucha et al., 1998). An investigator blinded to treatment group and day of photograph measured wound size. Wound size was expressed as the percentage of the wound area determined on every post-wounding day, compared with the original wound area.

neutrophils = conditions: cited from earlier work
wound bacterial load = format: in vivo, SKH-1 mice
Experimental: as §4, §5
Wound biopsies were performed to evaluate bacterial clearance. Mice were anesthetized as described above. The dorsal area was cleaned with Betadine and a uniform, full-thickness wound located on the dorsum just below the shoulder blades was created with a sterile 6.0-mm punch (Miltex Instrument Company).
Wound infection was assessed with measurement of bacterial load at the wound site by methods adapted from Rojas (Rojas et al., 2002). At day 1 and day 5 post-wounding, mice were euthanized; wounds were collected with a 6-mm punch (see above) and homogenized in 1 ml of sterile PBS. Homogenates were serially diluted (1:10); plated in duplicate on BHI agar, and incubated for 15 h. Bacterial colonies were counted.

[6] = system: recruitment of neutrophils; conditions: rat air-pouch; Sroussi et al., 2006; cited from earlier work
[7] = restraint stressed (RST) mice, single local treatment immediately after wounding

Molecule: C15H31CONH-ATGAPRLPST (Palmitoyl-ATGAPRLPST) [P4pal-i1, reference compound]
- spontaneous oxidative metabolic activity ([1]; 2.5 μM P4pal-i1): spontaneous oxidative metabolic activity was reduced
- effect on S100A8, S100A9 and calprotectin inhibition of spontaneous oxidative metabolic activity ([1]; P4pal-i1 with S100 proteins (FIG. 6B)): blocked the ability of S100A8, S100A9 and calprotectin (S100A8/A9 in combination) to inhibit the spontaneous oxidative metabolic activity of neutrophils
- PAR-4 activating peptide enhancement of oxidative metabolism [2]: blocked the ability of the PAR-4 activating peptide to enhance oxidative metabolism

Molecule: S100A8: recombinant human S100A8 calcium binding protein, expressed in Escherichia coli as GST fusion, GST tag cleaved
- rate of spontaneous oxidation of the DCFH-DA probe ([1]; 2.5 to 10 μg/ml of protein, followed over time, p <0.001 to <0.05): reduced the rate at which spontaneous oxidation of the DCFH-DA probe occurred in a dose dependent manner
- oxidative activation of neutrophils ([1]; 5, 2.5 and 1.25 μg/ml, p<0.05): inhibited the oxidative activation of neutrophils
- oxidative metabolism (fluorescence emission of DCFH-DA probe) ([1]; 1 h time point, all concentrations tested, P<0.05 compared to control): significantly inhibited oxidative metabolism at all concentrations tested
- oxidative activation of neutrophils, protein first boiled ([1]; same concentrations (5, 2.5, 1.25 μg/ml), protein boiled for 5 minutes): did not significantly affect the neutrophils
- PMA activation of neutrophils [3]: produced a dose dependent inhibition of PMA activation of neutrophils
- LPS stimulation of neutrophil oxidative activity [4]: strongly inhibited LPS stimulation of neutrophil oxidative activity
- calcium flux in Chem-3 cells (thrombin receptors): trigger calcium flux in Chem-3 cells in a dose dependent manner
- calcium flux in PAR-4 expressing cells (PAR-4; data not shown): activated calcium flux in those cells
- desensitization of PAR-4 expressing cells to thrombin activation (PAR-4; previous treatment with different concentrations, then 10 nM thrombin): dose dependently desensitized PAR-4 expressing cells to thrombin activation
- wound closure rate in stressed animals [5, 7]: partial acceleration in wound closure rate in stressed animals
- neutrophil chemotaxis toward bacterial products (formylated peptides) (neutrophils; in-vitro, Sroussi et al., 2006, 2007): inhibit neutrophil chemotaxis toward bacterial products

B1: ala^42S100A8: oxidation-resistant analog of S100A8 engineered using site-directed mutagenesis (cysteine 42 replaced with alanine) (protein, UniProt P05109 1-93, looked up, variant C42A)
Protein S100-A8: MLTELEKALNSIIDVYHKYSLIKGNFHAVYRDDLKKLLETEAPQYIRKKGADVWFKELDINTDGAVNFQEFLILVIKMGVAAHKKSHEESHKE
- wound closure in non-stressed animals with daily treatment ([5]; FWD mice, daily treatment, vs daily saline): significant delay in wound closure starting at day 4 post-wounding
- wound closure rates in non-stressed control animals ([5]; FWD mice, single application): normal wound closure rates
- wound closure rates with daily injections ([5]; daily administration to the wounds): did not result in the amelioration of wound closure rates
- wound closure rate in stressed animals [5, 7]: closure rate similar to the closure rates observed in the non stressed food and water deprived (FWD) group
- average wound size in stressed animals vs saline ([5]; restraint stressed (RST) mice, single local treatment immediately after wounding, from day 2 on): significantly smaller than the average wound size in stressed animals treated with saline
- wound bacterial loads, stressed mice, day 1 (wound bacterial load; RST mice, day 1, vs saline treated stressed mice): statistically significant reduction in bacterial loads
- wound bacterial loads, stressed mice, day 5 (wound bacterial load; RST mice, day 5, vs saline treated stressed mice): statistically significant reduction in bacterial loads
- wound bacterial counts, FWD mice, day 1 (wound bacterial load; mouse, in vivo): statistically significant increase in wound bacterial counts
- wound bacterial counts, FWD mice, day 5 (wound bacterial load; mouse, in vivo): bacterial counts had reverted to control values
- chemo-repulsive activity under oxidative conditions (neutrophils; conditions that inhibit wild type S100A8): retains its chemo-repulsive activity under oxidative conditions
- recruitment of neutrophils stimulated by bacterial endotoxins [6]: inhibits the recruitment of neutrophils stimulated by bacterial endotoxins
